These results are taken from PMC11993163.

In experiment [1] the target is PfNPM A1 (residues 1-110, up to A1 acidic tract) (Plasmodium falciparum) (UniProt C0H4U4). Briefly: pull-down.
The target in experiment [2] is PfNPM A3 (residues 1-170, up to A3 acidic tract) (Plasmodium falciparum) (UniProt C0H4U4). The experiment is described as follows: pull-down.

As for “assembled H3/H4 tetramer (from UniProt P84233 1-136; P62799 1-103) (complex)”, the highest NaCl concentration at which the complex was stable in experiment [1] and in experiment [2] was 600 mM NaCl throughout.
